# According to article PMC4289141 (Journal of the American Chemical Society, 2013):
# B1: ^A74/C81/C96RIDC1 (natural protein)
# chain: not shown
# modifications: heme covalently (c-type) linked to the protein backbone; in the tetramer disulfide bonds between monomers
# Biological target: the molecule itself
# Assay: cross-linking
protein,measurement,value
B1,stoichiometry N,4
